This test has as its target SARS-CoV-2 RBD (residues V320 to G550, strain Wuhan-Hu-1), C-terminal His tag (SARS-CoV-2, UniProt P0DTC2 320-550). The test is described as follows: BLI. In general terms: Biolayer interferometry detects binding as a change in optical thickness at a sensor tip.

A value given as a limit tells only on which side of the number the result lay.

This passage reports koff results from article PMC7801428 (2021).

B1: human-mouse chimeric antibody 3C1 (c3C1) (antibody, V domains shown)
VH: EVQLQESGPSLVKPSQTLSLTCSVTGDSITNGYWNWIRKFPGNKLEYMGYISYSGSTYYSPSLKSRISITRDTSKNQHYLQLNSVTSEDTATYYCASDYHGSKYYFDYWGQGTTLTVSS
VL: DIVMTQSHKFMSTSVGHRVSITCKASQDVGNDVAWYQQKPGQSPKLLIYWASTRHTGVPDRFTGSGSGTDFTLTISNVQSEDLADYFCQQYNRYPYTFGGGTKLEIK
Broadly, the koff is the rate constant with which the complex falls apart. A high value points to a short-lived complex. As to B1, the koff was less than 1e-07 s⁻¹.
